According to patent US20030072752A1 (GENERAL HOSPITAL CORPORATION A MASSACHUSETTS, published 2003):

Key:
bovine cathepsin L [1] = target: T1, bovine cathepsin L (bovine, UniProt P25975 118-334, limits assumed); assay: enzyme inhibition (method not restated here)
T1 construct: also called chatepsin L

bovine cathepsin L [2] = target: T1, bovine cathepsin L; assay: enzyme inhibition, Dixon plots at different substrate concentrations (Z-Phe-Arg-MCA)
papain = papain (UniProt P00784); assay: enzyme inhibition, Dixon plots at different substrate concentrations (BANA)
papain, sequence (P00784 134-345 limits assumed): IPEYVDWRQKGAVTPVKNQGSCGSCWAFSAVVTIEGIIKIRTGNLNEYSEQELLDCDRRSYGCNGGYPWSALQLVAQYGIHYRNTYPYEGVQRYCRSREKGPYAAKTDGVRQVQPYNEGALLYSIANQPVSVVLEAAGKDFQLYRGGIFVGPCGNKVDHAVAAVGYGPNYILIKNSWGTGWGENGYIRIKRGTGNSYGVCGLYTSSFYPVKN

bovine cathepsin L [3] = target: T1, bovine cathepsin L; assay: enzyme inhibition (method and origin of the value not stated)

T1 sequence (P25975 118-334 limits assumed): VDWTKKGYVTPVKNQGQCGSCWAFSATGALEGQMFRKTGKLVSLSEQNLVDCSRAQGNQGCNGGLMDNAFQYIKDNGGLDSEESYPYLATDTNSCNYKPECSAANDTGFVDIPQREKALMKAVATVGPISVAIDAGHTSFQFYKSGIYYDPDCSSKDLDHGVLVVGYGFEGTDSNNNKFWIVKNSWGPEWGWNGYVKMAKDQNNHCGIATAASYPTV

Ki (bovine cathepsin L [1]) | Ki (bovine cathepsin L [2]) | Ki (papain) | Ki (bovine cathepsin L [3]) | Molecule
5.9 nM | 1.9 nM | 1.68 nM | – | psoriastatin preparation (purified from psoriatic scale extract)
– | – | – | 0.067 nM | squamous cell carcinoma-antigen (SCC-A) (other, UniProt P29508 1-390, looked up) MNSLSEANTKFMFDLFQQFRKSKENNIFYSPISITSALGMVLLGAKDNTAQQIKKVLHFDQVTENTTGKAATYHVDRSGNVHHQFQKLLTEFNKSTDAYELKIANKLFGEKTYLFLQEYLDAIKKFYQTSVESVDFANAPEESRKKINSWVESQTNEKIKNLIPEGNIGSNTTLVLVNAIYFKGQWEKKFNKEDTKEEKFWPNKNTYKSIQMMRQYTSFHFASLEDVQAKVLEIPYKGKDLSMIVLLPNEIDGLQKLEEKLTAEKLMEWTSLQNMRETRVDLHLPRFKVEESYDLKDTLRTMGMVDIFNGDADLSGMTGSRGLVLSGVLHKAFVEVTEEGAEAAAATAVVGFGSSPASTNEEFHCNHPFLFFIRQNKTNSILFYGRFSSP
